test: yeast display, Sf9 membrane polyspecificity reagent, FACS + sequencing; frameworks hold sequencing errors
In short: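 Sorting gates, low and high (top ~1%), were placed on anti-HA fluorescence to track expression and on streptavidin fluorescence to track reagent binding. A clone's polyreactivity label is taken from the gate it came out of. The reagent was 10% biotinylated, detergent-solubilized Sf9 membrane, applied for 1 hour at 4 °C to galactose-induced yeast display cells.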

Sequence	polyreactivity (PSR sort gate)
QVQLVESGGGIVQAGGSLRLTCAASGSTFEIYAMGWYRQAPGKERELVAAISSGGSTNYADSVKGRFTISRDNAKNTVYLQMNSLKPDDTAVYDCAAVLYSRLYWYRLDYWGQGTQVTVSS	low polyreactivity
QVQLVESGGGLVQAGGSLRLSCAASGGTLYTYAMGWYRQAPGKEWEFVAAITVSGGRTYYADSVKGRFPISRDNAKNTVYLQINSLKPEDTAVYYCAARYWSWRSFKVDYWGQGTQVTVSS	high polyreactivity
QVQLVESGGGLVQAGGSLRLSCAASGIILLRYTMGWYRQAPGKERELVAAISRSAGRTYYADSVKGRFTISRDNAKNTVYLQMNSLKPEDTAVYYCNKASWYNGEIDYWGQVTQVTVSS	high polyreactivity
QVQLVESGGGLVQAGGSLRLLCAASGFTFGFNAMGWYRQAPGKERELVAAISRGGSTNYADSVKGLFTISRDNAKNTVYLQMNSLKPEDTAVYYCAADVITYVFRFYYWGQGTQVTVSS	low polyreactivity
QDQLVESGGGLVQAGGSLRLSCAASVITFVRNAKGWYRQAPGKERELVAAMSGRGGITYYADSVKGRFTISRDNAKNTVYLQMNSLKPEDTAVYYCAASSAGSSYNYWGQGTQVTVSS	high polyreactivity
QVQLVESGGGLVQAGGSLRLSCAASGIILSDYAMGWYRPAPGKERELVAAITSGGGSTYYADSVKGRFTISRDNAKNTVYLQMNSLNPEDTAVYFCAADLTSYYGGDYWGQGTQVTVSS	low polyreactivity
QVQLVESGGGLVQAGGSLRLSCAASGFTFRRYAMGWYRQAPGKERELVAAISYSGGITYYADSVKGRFTISRDNAKNTVYLQMNSLKPEDTAVYYCAAESVWTWYYTTAGMDYWGQGTQVTVSS	high polyreactivity
QVQLVESGGGLVQAGGSLRLSCAASGFIVTANGMGWDRQAPGQERELVASISRRGGSTYYADSVKGRFTISRDNAKNTVYLQMNSLKPEDTAVYYCAARFYQEWGQGTQVTVSS	high polyreactivity
QVQLVESGGGLVQAGGSLRLSCAASGSTFGVYAMGWYRQAPGKERELVAAINYSGRTYYADSVKGRFTISRDNAKNTVYLQMNSLKPEDTAVYYCAADWYWSRHEYEYWGQGTQVTVSS	high polyreactivity
QVQLVESGGGLVQAGGSLRLSCAASGITFQNYAMGWYRQAPGKEMELVAAITRSGGRTYYADSVKGRFTNSRDNANYTVYLQMNSLKQEDTAVYYCAVYGIGRPYWYDYWGQGTQVTVSS	high polyreactivity
QVQLVESGGGLVQAGGSLRLSCAASGITFWSNAMGWYRQAPGKERELVAAITSSGGSTYYADSVKGRFTISRDNAKNTVYLQMNSLKPEDTAVYYCAAPISRSAGWDSYDYWGQGTQVTVSS	low polyreactivity
QVQLVESGGGLVQAGGSLRLSCAASGSIFQVNAMGWYRQAPGKERELVAANRSGGRTTYADSVKGRFTISRDNAKNTVYLQMISLKTEDTAVYYGAAPLYYKSWTYPRLRSGYWGQGTQVTVSS	high polyreactivity
QVQLVESCGGLVQAGGSLRLSCAASGFTFYLYAMGWYRQAPGQERELVAAISSRGGTTYYADSVKGRFTISRDNAKNTVYLQMNSLKPEDTAVYYCNVARFYHIYDYWGQGTQVTVSS	high polyreactivity
QVQLVESGGGLVQAGGSLRLSCAASGFTFRDYVMGWYTQAPGKERELVAAISRSGASTYYADSVKGRFTISRDNAKNTVYLQMNSLKPEDTAVYYCAKTQAGYSPGTYDYWGQGTQVTVSS	high polyreactivity
QVQLVESGGGLVQAGGSLRLSCAASGLTFVPNAMGWSRQAPGKERELVAGITSAGSTYYADSVKGRFTISRDNAKNTVYLQMNSLKPEDSAVYYCAKQFYRGFRYGYWGQGTQVTVSS	high polyreactivity
QVQLVESGGGLVQARGSLRLSCAASVGILNWYALGWYRLAPVKEWELVAAISWSGGSTYYADSVKGRFTISRDNAKNTVYLHFNSLKPEVTAVYYCAAHSRGRFSRTYGYWGDGTQVTVSS	high polyreactivity
QVQLVESGGGLVQAGGSLRLSCAASGSIFYDAMGWYRQAPGKERELVAAITSSGGDTSYADSVKGRCTISRDNAKNTVYLQMNSLKPEDTAGYYCNADTYYVEYTAFDYWGQGTQVTVSS	low polyreactivity
QVQLIESGGGLVQAGGSLRLSCAASGRIFYYNAMGWYRQAPGKERELVAVITRSGGSTYYADSVKGRFTISRDTAKNTVYLQMNSLKQEDTAVYYCAKTWKGGYGYDYWGQGTQVTVSS	low polyreactivity
QVQLVESGGGLVQAGGSLRLSCAASGSTFGYYGMGWYRQAPGKERELLAAISTGGRTNYADSVKGRFTISRDNAKNTVYLQMNSLKPEDTAVYYCAADFLSPAYRPSWYRFDYWGQGTQVTVSS	low polyreactivity
QVQLEESGGGLDQAGGSLRLSCAASAIIFALYARGWYSQARGKHRELVATITYSGGSTNYADSLKGRYTISRDNAKNPVYLLMHSLKPEDTAVYYCAAASVPWGGYYSGQGTQVTVSS	low polyreactivity
QVQLVVSGGGLVQAGGSLRLSCAASGSIFTRYAMGWYRQAPGKERELVAAISSGGSTYYADSVKGRFTISRDNAKNTVYLQMNSLKPEDTAVYYCAKDSGSYRVGIYEPFPYGYWGQGTQVTVSS	low polyreactivity
QVQHVESGRCLFQAGGSLRLSCAASGSTFYNNALGWYRQAPGKERELVAVITDSGGRTYYADSVKGRFTISRDNAKNSVKLQMNSLKPEDCAVYYCAADIGYDVYNDYDYWGQGTQVTVSS	low polyreactivity
QVQLVESGGGLVQAGGSLRLSCAASGSIYVKGWYRQAPGKERELVAAISTNGGRTYYADSVKGRFTISRDNAKITVYLQLTSLKPEDTAVYYCAVRTTPKTRRFYYWGQGTQVTVSS	high polyreactivity
QVQLVESGGGLVQAGGSLRLSCAASGIIFSTYAMGWYRQAPGKERELVAAISYGGGSTYYADSVKGRFTISRDNEKNTVYLQMNSLKPEDTAVYYCAADSYRAYYYWGQGTQVTVSS	high polyreactivity
QVQLVDSGGGLVQAGGSLRVSCAASGIIFYYNAMGWYRQAPGKEREFVASISSRGGSTYYADSVKGRFTISRDNSKNTVYLQMNSLKPEDTAVYYCAAAFDWRRQRYNYWGQGTQVTVTS	high polyreactivity
QVQLVESGGGLVQAGGSLRLSCAASGYTFWAYAMGWYRQAPGKERELVAAITYRGGSTYYADSVKGRFTISRDNAKNTVYLQMNSLKPEDTAVYYCAAEGYYTGYWDLYDYWGQGTQVTVSS	high polyreactivity
QVQLVESGGGLVQAGGSLRIRCAATGFIFLDYAMGWYRQAPGKERELVAAISSRGARTYYADSVKGRFTISRDNAKNTVYLQMNSLKPEDTAVYYCAARGPLDRYGYWGQGTQVTVSS	high polyreactivity
QVQLVESGGGLVQAGGSLRLSCAASGRIFINYAMGWYRQAPGKERELVAAITTNGGSTYYADSVKGRFTISRDNAKYTVYLQMNSLKPEDTAVYYCAARRRYKMDYWGQGTQVTVSS	high polyreactivity
QVQLIESGGGLVQAGGSHRLSCAASGRIFAYYAMGWYRQAPGKERELVAGISQRGSRTYYADSVKGRFTISRDNAKNTVYLQMNSLKPEDTAVYYCAARDRRSVTMDYWGQGTQVTVSS	high polyreactivity
QVQLVESGGGLVQAGGSLRLSCAASGFTFDIYGMGWYRQAPGNERDLVASITSRSARTYYAYSVKGRFTISRDNAKNTVYLQMNSLKPEDTAVYYCAAYYWQCTYDSRRTGWRLMNYWGQGTQVTVSS	high polyreactivity

Reference: the nanobody polyreactivity screen of Harvey et al. (2022)
